Target: T1, myosin VI (MVI), endogenous in PC12 cells (rat (endogenous in PC12), UniProt D4A5I9 1-1285)
T1 construct: myosin VI heavy chain, endogenous in PC12 cells; also called unconventional myosin VI; source: endogenous, PC12 cells (lysate or fixed cells)
Assay: proximity ligation; Duolink in situ PLA on fixed PC12 cells, rabbit anti-MVI with mouse monoclonal antibodies to the partner; foci counted per nucleus
Conditions: partners not purified

T1 sequence (D4A5I9 entry or part of it): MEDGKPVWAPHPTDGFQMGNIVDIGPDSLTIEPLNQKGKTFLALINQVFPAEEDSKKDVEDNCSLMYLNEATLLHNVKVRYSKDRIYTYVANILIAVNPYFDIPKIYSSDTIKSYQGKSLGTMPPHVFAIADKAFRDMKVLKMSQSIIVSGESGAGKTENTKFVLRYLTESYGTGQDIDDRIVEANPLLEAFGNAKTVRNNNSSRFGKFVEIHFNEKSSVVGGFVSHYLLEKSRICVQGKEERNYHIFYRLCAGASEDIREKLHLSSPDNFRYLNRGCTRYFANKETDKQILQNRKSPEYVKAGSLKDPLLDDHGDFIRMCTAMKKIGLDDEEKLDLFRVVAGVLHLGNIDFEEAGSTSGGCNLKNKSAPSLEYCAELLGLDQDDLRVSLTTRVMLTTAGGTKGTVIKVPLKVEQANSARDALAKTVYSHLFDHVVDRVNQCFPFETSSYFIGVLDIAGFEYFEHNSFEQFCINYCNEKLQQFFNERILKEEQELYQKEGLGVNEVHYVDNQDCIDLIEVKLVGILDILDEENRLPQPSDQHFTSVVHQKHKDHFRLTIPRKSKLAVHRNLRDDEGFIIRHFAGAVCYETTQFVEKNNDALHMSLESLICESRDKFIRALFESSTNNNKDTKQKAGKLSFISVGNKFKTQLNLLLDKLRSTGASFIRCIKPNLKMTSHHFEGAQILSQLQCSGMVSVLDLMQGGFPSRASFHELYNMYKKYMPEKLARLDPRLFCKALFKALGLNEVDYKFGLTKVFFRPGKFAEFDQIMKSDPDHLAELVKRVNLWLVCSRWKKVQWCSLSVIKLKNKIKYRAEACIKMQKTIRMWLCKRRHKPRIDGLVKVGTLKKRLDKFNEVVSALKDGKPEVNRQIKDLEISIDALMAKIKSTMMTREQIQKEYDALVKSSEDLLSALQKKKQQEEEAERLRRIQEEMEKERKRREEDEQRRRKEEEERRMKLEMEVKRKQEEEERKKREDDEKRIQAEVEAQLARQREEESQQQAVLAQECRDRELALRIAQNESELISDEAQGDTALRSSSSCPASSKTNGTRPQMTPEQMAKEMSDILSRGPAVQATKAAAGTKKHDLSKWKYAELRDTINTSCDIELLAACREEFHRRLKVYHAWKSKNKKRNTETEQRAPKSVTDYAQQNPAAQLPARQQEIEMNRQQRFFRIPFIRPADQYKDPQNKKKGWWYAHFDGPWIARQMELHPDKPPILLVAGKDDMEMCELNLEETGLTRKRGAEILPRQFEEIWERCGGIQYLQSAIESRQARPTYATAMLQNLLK

fraction of PLA foci-positive nuclei [%] | Binder
~57 | B23 (also termed nucleophosmin, NPM1) (natural protein, rat (endogenous in PC12), UniProt P13084 1-292, looked up, B23 / nucleophosmin, endogenous in PC12 cells, detected with a mouse monoclonal anti-B23 antibody; source: endogenous, PC12 cells (lysate or fixed cells)) MEDSMDMDMSPLRPQNYLFGCELKADKDYHFKVDNDENEHQLSLRTVSLGAGAKDELHIVEAEAMNYEGSPIKVTLATLKMSVQPTVSLGGFEITPPVVLRLKCGSGPVHISGQHLVAVEEDAESEDEDEEDVKLLGMSGKRSAPGGGNKVPQKKVKLDEDDDEDDEDDEDDEDDDDDDFDEEETEEKVPVKKSVRDTPAKNAQKSNQNGKDLKPSTPRSKGQESFKKQEKTPKTPKGPSSVEDIKAKMQASIEKGGSLPKVEAKFINYVKNCFRMTDQEAIQDLWQWRKSL
~65 | fibrillarin (natural protein, rat (endogenous in PC12), UniProt P22509 1-327, looked up, fibrillarin, endogenous in PC12 cells, detected with a mouse monoclonal anti-fibrillarin antibody; source: endogenous, PC12 cells (lysate or fixed cells)) MKPGFSPRGGGFGGRGGFGDRGGRGGGRGGRGGFGGGRGGFGGGGRGRGGGGGGFRGRGGGGGRGGGFQSGGGRGRGGGRGGKRGNQSGKNVMVEPHRHEGVFICRGKEDALVTKNLVPGESVYGEKRVSISEGDDKIEYRAWNPFRSKLAAAILGGVDQIHIKPGAKVLYLGAASGTTVSHVSDIVGPDGLVYAVEFSHRSGRDLINLAKKRTNIIPVIEDARHPHKYRMLIAMVDVIFADVAQPDQTRIVALNAHTFLRNGGHFVISIKANCIDSTASAEAVFASEVKKMQQENMKPQEQLTLEPYERDHAVVVGVYRPPPKAKN
~36 | UBF (upstream binding factor) (natural protein, rat (endogenous in PC12), UniProt P25977 1-764, looked up, source: endogenous, PC12 cells (lysate or fixed cells)) MNGEADCPTDLEMAAPKGQDRWSQEDMLTLLECMKNNLPSNDSSKFKTTESHMDWEKVAFKDFSGDMCKLKWVEISNEVRKFRTLTELILDAQEHVKNPYKGKKLKKHPDFPKKPLTPYFRFFMEKRAKYAKLHPEMSNLDLTKILSKKYKELPEKKKMKYIQDFQREKQEFERNLARFREDHPDLIQNAKKSDIPEKPKTPQQLWYTHEKKVYLKVRPDATTKEVKDSLGKQWSQLSDKKRLKWIHKALEQRKEYEEIMRDYIQKHPELNISEEGITKSTLTKAERQLKDKFDGRPTKPPPNSYSLYCAELMANMKDVPSTERMVLCSQQWKLLSQKEKDAYHKKCDQKKKDYEVELLRFLESLPEEEQQRVLGEEKMLNINKKQTTSPASKKPSQEGGKGGSEKPKRPVSAMFIFSEEKRRQLQEERPELSESELTRLLARMWNDLSEKKKAKYKAREAALKAQSERKPGGEREDRGKLPESPKRAEEIWQQSVIGDYLARFKNDRVKALKAMEMTWNNMEKKEKLMWIKKAAEDQKRYERELSEMRAPPAATNSSKKMKFQGEPKKPPMNGYQKFSQELLSNGELNHLPLKERMVEIGSRWQRISQSQKEHYKKLAEEQQRQYKVHLDLWVKSLSPQDRAAYKEYISNKRKNMTKLRGPNPKSSRTTLQSKSESEEDDDEEDDDDDDEEEEEDDENGDSSEDGGDSSESSSEDESEDGDENEDDDDDEDDDEDDDEDEDNESEGSSSSSSSSGDSSDSDSN
